These results are taken from patent publication US20180086836A1 (GLENMARK PHARMACEUTICALS S A, published 2018).

The target of one assay is T1, hsCCR6/mmECL2 (human/mouse hybrid, UniProt P51684 1-374).
T1 construct: also called second mutant; pT1-hsCCR6/mmECL2
T1 chain: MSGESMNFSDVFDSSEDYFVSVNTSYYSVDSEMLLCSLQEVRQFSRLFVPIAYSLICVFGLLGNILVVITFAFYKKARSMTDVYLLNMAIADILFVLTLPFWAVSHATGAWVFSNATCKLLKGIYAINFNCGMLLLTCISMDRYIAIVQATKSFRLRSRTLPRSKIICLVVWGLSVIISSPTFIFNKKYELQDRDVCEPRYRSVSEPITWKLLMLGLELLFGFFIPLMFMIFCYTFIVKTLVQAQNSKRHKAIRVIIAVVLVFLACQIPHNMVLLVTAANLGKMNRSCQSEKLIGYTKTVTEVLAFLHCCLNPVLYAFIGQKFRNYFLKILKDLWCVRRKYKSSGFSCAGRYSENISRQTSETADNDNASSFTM
Nature of the assay: flow cytometry on transfected cells (Human Nter, only loop 2 drawn black as murine), 10 µg/ml, PE-labelled secondary antibody. Here is the method: (§1) Binding of the chimeric 4H11 antibody to human/mouse CCR6 hybrid constructs was evaluated by flow cytometry. Human/mouse CCR6 transfectants were counted and 2×10⁵ cells were incubated with 10 μg/ml of chimeric 4H11 antibody. Binding activity of 4H11 was detected with anti-human IgG-PE. To evaluate good expression of the human/mouse chimera on cells, two commercial antibodies directed against human and mouse CCR6 were used. Histogram plots show the geometric mean of fluorescence intensity (Y-axis) measured by flow cytometry
(§2) Binding of MAb to the surface of CCR6 transfected CHO cells was assessed using flow cytometry. 2×10⁵ cells were distributed in a 96 well V bottom plate and centrifuged for three minutes at 1300 rpm. Cells were collected and incubated with the appropriate mAb at a final concentration of 10 μg/ml in a volume of 50 μl in FACS buffer. Cells were incubated for 30 minutes on ice, washed twice and resuspended in 50 μl of PE-labelled secondary antibody diluted at 1/200 in FACS buffer. Cells were incubated for 15 minutes on ice, washed once, resuspended in 400 μl of FACS buffer and analyzed on the FACS instrument (Cyan, Beckman Coulter) in channel FL-2.
A general note: In flow cytometry, cells or beads pass a laser one at a time.

Another assay addresses T2, mmCCR6/hsN-term (human/mouse hybrid).
T2 construct: also called mutant 5; mouse CCR6 receptor containing a human N-terminal region
T2 chain: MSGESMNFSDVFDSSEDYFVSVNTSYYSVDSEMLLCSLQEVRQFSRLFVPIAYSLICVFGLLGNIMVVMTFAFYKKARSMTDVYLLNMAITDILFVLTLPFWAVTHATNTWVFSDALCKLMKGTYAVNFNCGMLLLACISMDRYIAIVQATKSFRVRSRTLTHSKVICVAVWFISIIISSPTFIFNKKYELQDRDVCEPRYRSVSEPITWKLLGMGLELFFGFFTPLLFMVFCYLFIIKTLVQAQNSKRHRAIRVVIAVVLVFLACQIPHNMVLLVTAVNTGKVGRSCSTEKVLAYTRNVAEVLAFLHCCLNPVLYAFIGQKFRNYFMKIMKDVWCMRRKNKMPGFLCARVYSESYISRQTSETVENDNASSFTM
In words: flow cytometry on transfected cells (Human Nter, Murine loops 1-3), 10 µg/ml, PE-labelled secondary antibody. How it is done: as §1, §2

The target of a further assay is T3, hsCCR6/mmECL3 (human/mouse hybrid, UniProt P51684 1-374).
T3 construct: also called third mutant; pT1-hsCCR6/mmECL3
T3 chain: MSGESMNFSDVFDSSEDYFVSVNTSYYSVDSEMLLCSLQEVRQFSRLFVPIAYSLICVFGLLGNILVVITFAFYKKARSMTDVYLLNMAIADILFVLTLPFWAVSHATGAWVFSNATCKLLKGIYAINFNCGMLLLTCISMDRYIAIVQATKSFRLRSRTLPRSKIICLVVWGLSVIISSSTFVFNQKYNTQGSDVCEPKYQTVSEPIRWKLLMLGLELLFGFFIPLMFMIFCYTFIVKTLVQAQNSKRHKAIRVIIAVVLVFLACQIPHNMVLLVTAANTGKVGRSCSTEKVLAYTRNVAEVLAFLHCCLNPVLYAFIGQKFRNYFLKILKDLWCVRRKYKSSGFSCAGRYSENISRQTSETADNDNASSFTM
Nature of the assay: flow cytometry on transfected cells (Human Nter, only loop 3 drawn black as murine), 10 µg/ml, PE-labelled secondary antibody. How it is done: as §1, §2

The target of another assay is T4, mouse CCR6 (mouse, UniProt O54689 1-367).
T4 construct: also called mmCCR6; murine CCR6
T4 sequence: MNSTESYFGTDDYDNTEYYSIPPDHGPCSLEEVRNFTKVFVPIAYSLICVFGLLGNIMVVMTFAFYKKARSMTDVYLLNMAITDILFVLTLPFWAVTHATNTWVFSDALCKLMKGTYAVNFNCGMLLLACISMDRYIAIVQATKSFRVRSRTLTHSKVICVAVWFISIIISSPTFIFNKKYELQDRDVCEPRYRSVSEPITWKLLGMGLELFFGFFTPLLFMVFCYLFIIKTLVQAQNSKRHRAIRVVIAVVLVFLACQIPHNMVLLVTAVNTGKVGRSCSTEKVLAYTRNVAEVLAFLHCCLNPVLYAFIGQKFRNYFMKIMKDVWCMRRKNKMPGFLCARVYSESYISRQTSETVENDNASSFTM
Nature of the assay: not given; premise of the human/mouse hybrid mapping.

The target of another assay is T5, hsCCR6/mmN-term (human/mouse hybrid, UniProt P51684 36-374).
T5 construct: also called mutant 4; human CCR6 receptor containing a mouse N-terminal region
T5 chain: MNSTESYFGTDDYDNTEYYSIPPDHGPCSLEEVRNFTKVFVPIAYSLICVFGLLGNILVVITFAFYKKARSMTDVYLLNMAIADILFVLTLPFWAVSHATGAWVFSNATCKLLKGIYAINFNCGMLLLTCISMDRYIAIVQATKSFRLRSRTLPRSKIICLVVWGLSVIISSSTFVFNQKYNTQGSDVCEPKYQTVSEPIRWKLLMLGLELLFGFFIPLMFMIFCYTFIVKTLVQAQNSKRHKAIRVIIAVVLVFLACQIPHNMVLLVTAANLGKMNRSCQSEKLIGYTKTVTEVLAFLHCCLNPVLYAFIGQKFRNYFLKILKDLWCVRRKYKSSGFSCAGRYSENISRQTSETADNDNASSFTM
Nature of the assay: flow cytometry on transfected cells (Murine Nter, Human loops 1-3), PE-labelled secondary antibody. Here is the method:
as §1, §2

The next assay deals with T6, hsCCR6/mmECL1 (human/mouse hybrid, UniProt P51684 1-374).
T6 construct: also called first mutant; pT1-hsCCR6/mmECL1
T6 chain: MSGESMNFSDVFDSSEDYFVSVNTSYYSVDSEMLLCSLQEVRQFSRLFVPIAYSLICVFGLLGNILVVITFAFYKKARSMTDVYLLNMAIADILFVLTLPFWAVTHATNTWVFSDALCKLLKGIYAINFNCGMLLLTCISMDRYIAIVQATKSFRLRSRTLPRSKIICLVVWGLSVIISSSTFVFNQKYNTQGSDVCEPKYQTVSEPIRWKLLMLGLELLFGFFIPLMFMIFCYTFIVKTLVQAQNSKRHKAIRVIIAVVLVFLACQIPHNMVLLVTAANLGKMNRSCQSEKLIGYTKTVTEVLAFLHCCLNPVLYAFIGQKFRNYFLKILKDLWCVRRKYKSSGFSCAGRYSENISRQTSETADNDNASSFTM
Nature of the assay: flow cytometry on transfected cells (Human Nter, Murine loop 1, Human loops 2 and 3), 10 µg/ml, PE-labelled secondary antibody. Here is the method:
as §1, §2

B1: chimeric 4H11 antibody (antibody, human IgG1, kappa, V domains shown)
VH: EVKLVESGGGLVQPGGSLKLSCATSGFSFSDYYMYWIRQTPEKRLEWVAYITNGGITYYPDTVKGRFTISRDNAKNTLYLQMSRLRSEDTAMYYCTSPLRGAWFAYWGQGTLVTVSS
VL: DVIMTQSPLSLPVSLGDQASISCRSSQSIVHSNGNTYLEWYLQKPGQSPKLLIYKVSNRFSGVPDRFSGSGSGTDFTLKISRVEAEDLGLYYCFQGSHVPLTFGAGTKLEIKR
notes: also called chimeric 4H11 mAb; 4H11 chimeric antibody
Take B1: the binding result in the assay with hsCCR6/mmECL2 was “binds”; with mmCCR6/hsN-term, “binds”; with hsCCR6/mmECL3, “binds”; in the assay with mouse CCR6, “no binding”; with hsCCR6/mmN-term, “no binding (tested: 10 µg/ml)”; with hsCCR6/mmECL1 it was “binds”.
